According to the DeepSol protein solubility set:

Assay: soluble on expression in E. coli; label from the status in PepcDB or PDB records

For “MGSDKIHHHHHHMLDNRIIDELKTIVGADNVATDRQDLICYGYDATQMEFLPDAVVHPGSPDEVSAVLKLANREQFPVYPRGAGSGFTGGALPKGGGIVLVVTRLNRILRIDTENLIAEVEPGVVTEQFQLEVEKLGLFYPPDPASLKFSTLGGNVAENAGGPRCVKYGVTRDFVMGLEVVLPSGEIIRTGGETYKGVVGYDLTRLLCGSEGTLGVITKIIFKLLPLPEAKKTMMTIFDSIDGAAKAVSTIIGNKIIPTTLEFMDHATLQCVEKRFNLGIPASGRAVLIIEVDGDRDLIEKQAARIQELIKPLGLVECKIAKDAAESEALWKVRRLVSPSLRDVNPDKFNEDIVVPRSKVPDVIRVIEKIQQKYAIPIVNFGHAGDGNIHVNIMIDKSVAGQEEKAHEAIAEVFQAALDLNGTMSGEHGVGLAKQPYIHLELKPAQVATMQAIKKALDPNNILNPGKMFPV”, which “soluble on expression in E. coli” value is on record?
The value was “not soluble”.

Which “soluble on expression in E. coli” value does the source give for “MGSDKIHHHHHHMLDRIIGTASANNWLFFCLFNNKFSGDIDSQRLLNMFRSVIAALLACLSYSAHAVVILQYHHVSEDTPKVTSVIPAQFREQMSYLRENGFKVKPLTHVVEAIKQGRELADKTVAITFDDGYQNIADTAHPILKEFGYPYTIFISIDPIERKHKNVMSWATLKRLSDEGVTLANHSWGHEHLIRRLHGEDEQTWLTRITENLLATEAEIEAKTGQSVKMLAYPYGEYNTAIETLVQKLGFVGFGQQSGAAGGYSSLTALPRFPVAGAYADLTSLKAKLYSLNMPVLALTPRNTQLPLGQWRPEMQVTLDMADIVASQVMCFVQGQGAMKPSWESEDTFSIQAVTDLPPGRSRYNCTAPSKASGRYYWFSQAWVRPKNDGTWVKE” here?
Its value is “not soluble”.

For “MGSDKIHHHHHHMLEKKARIADEAEIVDEAIVSRRSVRAFLPDMIDDDTIRDILEVAARAPSGTNMQPWRVYVTKGETKQQISDAILNSGIRAEKADWDEYRYYPTQFFEPYLTRRRANGFGLYGALGIGRREVDKMRAQHDRNFVFFDAPVGMIFTIDRRLNQGSWIDYGMFLQNIMVAARGRGLHTCPQAAFAPYHRQIRPVLNIPDEEIVVCGMALGYEDTSKPENAFRTDRVPLEEWVTFSE”, which “soluble on expression in E. coli” value is on record?
Its value is “not soluble”.

Which “soluble on expression in E. coli” value does the source give for “MGSDKIHHHHHHMLELTDDLRIGHPVIDADHQRLIEIINEFLEHSNEVNPQILHETLKSLLAYGREHFAREEGIQRQCLYPYQQGHSNEHKSLLDQVREIARAYFVAKTKPLNATSVQDVNELLKAWLIGHVKKFDTSMRDWVAPSLDMDAPRIKLASPDLAALIISPNERSRARLADLLSELGASKVLQAEDSITGLGMAFGDPVPDFIFCDLETEPLDGGAFAGALRGSNKAYITRIPLLLLHDAEDAEAIQNAMAAGASGVYPKSFNPTNLGRLLNQLLLR” here?
Its value is “not soluble”.

With “MGSDKIHHHHHHMLEMKATGKSKGQWMFYRNFDDTVDYLSDHTRILSYNPFCHKVEPLDRDEAYRWHFRVTDPQNNPFDVIFNIQQETEILVDLPDEVASMDPEEMSDEMIRQFTVGRKITWRPLAQDKTFTMPEKYLFEGQVTADMLIVPVQQEQTRVDFDLWVNVAFLLYPAFRIVPEKVVRTMVSTGMSLIMQTATNHMFQKISKEFGKIRKL” as the sequence, how does the “soluble on expression in E. coli” value read?
The value was “not soluble”.

With “MGSDKIHHHHHHMLEVIDVWKKYPPKTQALREVSFEAEEGSITAVFGENGSGKTTLLKVIASFLIPDRGKVLIDSVNIVEKPSFAVEKVSISTGYERSFYYRLSVEENLKFFGMLNDLLGKTLKRETERVMKELGLLECRKKRYMELSTGYKKRVDVARALMKKASIYIFDEPCSGVDLRTRLKIHEIMKRLKESGRIVIFASHDLEDLKIADRVIVLKKGEKVLEFSPKKEDLAAVLRGILEIQAFPGD” as the sequence, how does the “soluble on expression in E. coli” value read?
The value was “not soluble”.

For “MGSDKIHHHHHHMLFLSGLLGVSAQRVALKNNLLYDATLTPNLALEIGVGPKMTVDLLGGVNPFKISDDHYWKHWLAQPELRYWFCEKFNGVCIGLHGHVGQMNIAGISVPPVGSIHPKSDFDDARYHRYQGWFYGGGISIGRQWILGNHWNLEASIGGGYIHFDYDKYQCVECGKKVGVDKKADYFGLTRATLSLIYLFK”, which “soluble on expression in E. coli” value is on record?
The value was “not soluble”.

For “MGSDKIHHHHHHMLGKTAGGLYWLFRYLERSENTARLIETGFRIALTRPDGSDDEWRSVLQTAAVRDLYEGLYGEVEQAKAIDFLLRDRANPSSILSSISEARQNARLTRTALTREVWEAINDAYMNLKELLAHPVSAKTLPGTLATIRQHSALVRGAMHGTMLRTDIFDFCRLGTFIERADNTARILDVKYYVLLPSMTQVGSDLDNVQWETILRAVASHRSYRWLMGGETTPKGIADFLVFDTRMPRSLRFTVKKMASNLEYLAENYGQRHACHDQMDVLLARLKHGTIDEVFDDGLHEFLTEFLLDIGALGAQIESDYRFLG”, which “soluble on expression in E. coli” value is on record?
The value was “not soluble”.

Which “soluble on expression in E. coli” value does the source give for “MGSDKIHHHHHHMLIHICCSVDNLYFLKKAKEAFAGEKIVGFFYNPNIHPYSEYLLRLEDVKRTCEMLGIELLEGDYELEKFLDKAKGKELLGEKSERCFECFDLRLEASALKAFELGEEKFTTTLLTSPKKDPNQLIAKGQHIAQRHNLEFVVFRNDNFEHFKSELDLNLQALARENELYRQNYCGCQFALKIQKESQNRSPFELYSPLKRQILPASIEERTQVFRELDAAKKDANKPFLAQKTIATYRLLNGGVWLSKNSNPLDCCILARSKSKAKVRINDLRWVFSQRLSALVGYSQRDETLFLTLEGLNTLMAKNYDNLKELNLNPLSYEEELSLRALVSGSESINPIIVLEERTEKTLFVEIKSIFQEEKVFYLL” here?
Its value is “not soluble”.

With “MGSDKIHHHHHHMLKHFGSKVRNLRVTRNITREDFCGDETELSVRQLARIESGQSIPNLTKAHYIAKQLNVKLDILTGGESLELPKRYKELKYLILRIPTYADAERLKLRECQFDHIFEEFYDNLPEDECLAIDSLQAKFEVYQTGDINFGVEVLCECFDKVKYKEKYTLNDLIIIDLFLTCAVVSKFNNRAFTKEVFQTICKTLISQNHKLTAEDLFWFNHVLLNCVFVGLCLNSEECLAEMLEVSRQTMVSTHDFHKMPLYFMYQWKYFITIDNDIKSAENAYQQSIMFSKMIDDKHLIKKLELEWQEDITGH” as the sequence, how does the “soluble on expression in E. coli” value read?
The value was “not soluble”.

With “MGSDKIHHHHHHMLKKSNIQWTAKQIAKMMDKGTLGFDNSVQRGLCWKTDKKILLIDSMFQNYPIPAFYAARNEDKTYDMLDGKQRCHAIKEFIEGKFKLDGIEEVELEDGESIDVNGMSFEELPEELQDRVKDYSLTVYFFLDLSDDQVSEMFYRLNNGKALSAIELTRVKAKSFDAIRELGNHEIFKNALTLKQVNKYTNEDIVIKTYAMLYTENPSFETKKIRPLMQDVEFTEQQKEEIKKAYSKILDIWKAINTEDKEHKKIAKRILTRTHLLTIIPIVIKSDKTIEELASWLLKFYSGKRRASISEKYNSAAGSGSARSESIKIRLEELKKDYNEYFSNQDEEINKKIEEIFKEGDSIE” as the sequence, how does the “soluble on expression in E. coli” value read?
The value was “not soluble”.

For “MGSDKIHHHHHHMLLAVDHTTHYVFSGPVSHGLQRLRLAPKSTAGQRVVEWSMQFEGARLQAEYDDANNNRVSLISFDPGVSQVTIRCEGLVDTNDEAGIIGKHAGFMPMWQFLEQTDLTRAGARTRALLAALPHEDSTLVKLHALSALVRERVEYASGHTDVDTTAEGALAAGRGVCQDHAHIFIGAARALGIPARYACGYLMMDDRVEQDAGHAWAEAHVESLGWVGFDVSNGISPDARYIRVATGRDYRDAAPVTGIRYGAMDEAMHVRLAVQQQRVEQ”, which “soluble on expression in E. coli” value is on record?
Its value is “not soluble”.

For “MGSDKIHHHHHHMLMETTRLLDIRSMSVEFPGVKALDQVDFTLNRGEIVALLGENGAGKSTLIKALTGVYHRSSGDIILDGIAINPVNTAHAQSLGIGTVYQEVNLLPNLSVAANLFIGREPTRWGIVDQHKILLQAEALLLNYGLAIDVSHPLGNYSIAVQQIVAIARAVDLSAKVLILDEPTASLDAKEVDMLLDILRKLRDRGIGMIFVTHFLDQVYRISDRITVLRNGRLVGTLPTAELPRIELVQMMLGHSFDETLLKRGEHSDVSGEPIVQFKHYGRRGSINDFELSVRPGEIVGLAGLLGSGRTETAQLIFGINVPDAGEAWVDGKKINIRTPRAAGKLGFGYCPEDRKTDGIVGAATVRENIILALQAQRGWLKPISLREQTRIAEKFISLLGIRTPSAEQEIQYLSGGNQQKVLLSRWLATEPRFLILDEPTRGIDVGAHAEIIRLIEKLCEQGMALLVISSELEELTGYADRIIVLRDRQHVAHLEHSEISVAAVMQAIAVQTGAADDRQ”, which “soluble on expression in E. coli” value is on record?
Its value is “not soluble”.

For “MGSDKIHHHHHHMLNLEQLNAFIAAVEKGSFSAAARHIGKSQSSVSIGVNNLELDLGVELFDRSTKYPQLTEQGERLYHQAKALMRQATRMESYAKGVIEAVEDQLVIGADPLVPMSVFDSALEKMAEKFPFTRVKLVKLTGNHLNRAIEADEVDVGFNIMSEAVPENLDFIGIARIEWVCICSPDYKFADLEAVDSEMLINERQIVCSSMLQNEYLAKLGRVSQETWEASDLDDMIRLVEQGIGWGIIPLSMYEEKAAIGTLSTFKPVIEKETGLITVDLLWKSTAQLGPAKSFFIDLLKR”, which “soluble on expression in E. coli” value is on record?
Its value is “not soluble”.

Which “soluble on expression in E. coli” value does the source give for “MGSDKIHHHHHHMLQTINLTQRYATKKLFENVNIKLDKNKRYGLIGANGAGKSTFLKILSKSIDCSSGEVIITSGMKMGVLGQDQYAFEDLSLKDAVLIGNKRLYDAIKEKERLYTEGDLSDDKVNARLGELETICVEEDPMYECEVAIEKILEDLGIPSSKHNDLMKTLPSSDKFKILLAQVLFPKPDILLLDEPTNNLDLNAIEWLENNLKRHEGTMVVISHDRHFLNAVCTHILDLDFHSVREFSGNYDDWYIASTLIAKQQEAERNKKLKEKEELEKFIARFSANASKAKQATSRQKQLDKLDIQSLAVSSRRDPSIIFKPKRTIGNEALECENISKSYDDQIVLNQVSLKVMPKDKIALIGPNGVGKSTLCKILVEELKPDKGVVKWGATVSKGYFPQNVSEEISGEETLYQWLFNFNKKIESAEVRNALGRMLFNGEEQEKCVNALSGGEKHRMVLSKLMLEGGNFLVLDEPTNHLDLEAIIALGEALFKFDGALICVSHDRELIDAYANRIIELVPSPKGASIIDFKGSYEEYLASKK” here?
The value was “not soluble”.

For “MGSDKIHHHHHHMLTLRQALLALFHQFETLFHYLEHLCRHRSAARPGRSSFLHSSVEIQVKETLIRNLWYVAGTSDEFAPGQLVGQTIVGLPLVLWRPEAGGEVVAFDGRCCHKRMPLAAGKLLADGTLECAYHGLCFDSAGKCVKIPSQPGRAIPSRAKLRPYPIVEQDGMVWIWMGDDANPALRPPRIPELASPEWEAIRVQNAEVPTNYLLLIENLLDISHFYPLHDGNIGDIANSEIPVEFSHEGVQGNRSVTSVRKAESYRHPPYLEDFFGYELVDRHHSHSMISPAAIRVDLRCAPPGRLETEDERGYILTHLITPIDERHHRWRVIAACRAGHRWPADPSVSTVARVAEKFPGVIAQDLWALTEQQKMLDLADTHYLGEMHLRADTGILKAREIVRDMVAAEAQPASQAVAA”, which “soluble on expression in E. coli” value is on record?
Its value is “not soluble”.

For “MGSDKIHHHHHHMLTMKPEFVAQLERVLSSVEMLLPRAVKPVNWSTCYAANWRRHSFSGFLQAVRVTDTTSLHELLGVEKQKEIMISNTRQFLKGLPANNALLWGSRGTGKSSLVKALLNEYACEGLRVIQVEKEDLIYLSDIFSAVEGEPYRFILLCDDLTFEPGELTYKILKSALDGSVYSPPENVLIYVTSNRRHLLPEYESDNIGWKLVNGELQESEATEEKIALSDRFGLWVPFHVFTQDRYLEAVRLCVEREARTREVDIPWSEQLRLDAIQWSHDKKKRCGRTAYQFSKHWVGKYLLARQAA”, which “soluble on expression in E. coli” value is on record?
Its value is “not soluble”.

For “MGSDKIHHHHHHMLTSRKFFPSLSSLRALEALDRLGSASAVAEELALTQSAVSRQLQTLEGQMGVELIRRDRKRLSLTPAAQDYVTEIREALNRIAQASLRLQVAPAGGTVNLAILPTFGMRWLMPRLPEFSRLHPDITINMTTRLRPFNFASEPFDAALHFGEPDWPGTDRLLLRAERVLPVCAPGLLPHGAPKSPADLLRLPLLHIQTRPRAWQDWFAQMGVTCPETLPGTLYDQFATIGQAALHGLGVALLPNYVVEQDLATGRLVAAYPDAVETLGAYYLVWPRARGNDPSLRAFRHWLAAQAEPEEGLPR”, which “soluble on expression in E. coli” value is on record?
The value was “not soluble”.
